Columns and labels:
[1] = target: phosphorylated CheY K91C, methylene blue at position 91 (E. coli) (UniProt P0AE67); assay: electrochemical sensor
[2] = target: CheY K91C, methylene blue at position 91 (E. coli) (UniProt P0AE67); assay: electrochemical sensor

16-residue target region of the flagellar switch protein FliM (peptide)
Kd [1]: 16 µM
Kd [2]: 213 µM
